Test results published in the supplement of paper PMC9170038.

System: MS2 coat protein
Experiment: apparent KD of MS2 coat protein; designed switch direction (-1 OFF switch, 1 ON switch): 1; higher = weaker reporter binding
Summary of the method: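 Designed RNA switches with common flanks were made on Illumina chips by stalled E. coli RNA polymerase. Titration with SNAP-549-labelled MS2 coat protein doubled from 0.7 or 1.5 nM up to 3 µM. Apparent KD is each design's median over clusters after curve-fitting normalised fluorescence.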

[1] = input ligand: microRNA oligo, concentration not stated
[2] = Eterna round: R95, input ligand: FMN 200 uM
[3] = Eterna round: R95, input ligand: microRNA oligo, concentration not stated
[4] = Eterna round: R95, input ligand: none

Sequence	apparent KD of MS2 coat protein (input ligand: FMN 200 uM) [nM]	apparent KD of MS2 coat protein [1] [nM]	apparent KD of MS2 coat protein (input ligand: none) [nM]	apparent KD of MS2 coat protein [2] [nM]	apparent KD of MS2 coat protein [3] [nM]	apparent KD of MS2 coat protein [4] [nM]
CCAUAACAGUGAGGAUAUCGUUGCGAUAAGUGACGAGAAGGCAUUCAUGUGAAAUAAACAUACAUGAGGAUCACCCAUGUUGUA [Omei SS(NG)1 B] (Eterna round: R96, puzzle: Same State NG 1)	18.2	17.1	20.6			
UUUCUUCUCGUAGGAUAUGUAGGAUAUGCCUACAUGAGGAUCACCCAUGUUCGCAUGGCAGAAGGACAGAAGGACGAUCACCCU [pwkr ssNG2 2FMN + 1F5.9] (Eterna round: R96, puzzle: Same State NG 2)	55.4	234	502			
CUCAACAACACAGGAUAUCCAGGGAAAAGAACUGGAGAAGGGUGACCAACAUGAGGAUCACCCAUGUGAUAGCUAGGCUGUCUG [Lararariso] (Eterna round: R96, puzzle: Same State NG 1)	24	191	1300			
GGAGCCGGCACCGAGGAUAUUCAUAUUAAAACAUGAGGAUCACCCAUGUAGAGCAGAAGCUCUUGGGAGAAGGCGGAUCGGCUCG [Xeonanis - 27] (puzzle: Same State 2)				28.4	306	549
ACAUGAGAGAUAGGAUAUCUUGUACCUACAUGUGACAUGAGGAUCACCCAUGUGGUAAGUAUGAGGGAGAAGGAUCAGAUAUGU [Equivalence 42 - Jieux - Same State NG 2] (Eterna round: R96, puzzle: Same State NG 2)	29.6	26.4	45.2			
AUAAAACAUGAGGAUCACCCAUGUCUCUAAAGUCGAGGAUAUGGGCAAAUAAUAUAAGAACCAGAAGGCGAAUAAU [SS1 Teenbexe 3] (puzzle: Same State 1)				58.1	51.2	530
CAGCGCUGUCGAGAGGAUAUGCGGUGAUGGACAUGAGGAUCACCCAUGUUAGCGACAGCAUCACGGCAGAAGGCUCUAUCGCUGC [Soteed Omei mod 29] (puzzle: Same State 2)				24.2	39.5	48.9
UUCGAGUAGCAAGGAUAUCUUAUUUAGAUUUUAAGAGAAGGUGCUUAUUAGAAACAUGAGGAUCACCCAUGUAUUACUUCUUAU [JR_SSNG1_Sub066] (Eterna round: R96, puzzle: Same State NG 1)	14.1	13.8	20.1			
GUGGUGGGUUGAGGAUAUUGGUUGCAUAUGUUUAACAUGAGGAUCACCCAUGUGGGUUGCGGUUUCGAGAAGGUAGGUUGCUGG [salish99_SSNG2_r04_045bad] (Eterna round: R96, puzzle: Same State NG 2)	112	106	112			
GGUCCAGCCUGAGCUGGACAAAAGCAUGUACAUGAGGAUCACCCAUGUUCAUGUACAAGCUUUUUGCUCGUCUUAUC [salish99_208a_r3_056] (puzzle: Sensor for hsa-mir-208a)				431	14.6	664
UCGGGCGUACUUGCAGACAUGAGGAUCACCCAUGUAAAUGGGAAGGAUAUGGUACCGUUUCGGUACCAGAAGGUCCUGGGUGCU [salish99_SSNG3_r04_308] (Eterna round: R96, puzzle: Same State NG 3)	810	281	1960			
AAUGUCUCACAUGAGGAUCACCCAUGUCUUUGGAUGAAGCUUUUUGCUCGUCUUCAUUUUGCUCGUCUUACCCAUGU [SBY_1] (puzzle: Sensor for hsa-mir-208a version 2)				44.8	21	52.7
GCGGAGAGGUAAGGAUAUCCAUGGAAAAAACAUGAGGAUCACCCAUGUAGGAAAAAAACUAGGAGGGAGAAGGUACCGGGACGC [AK SSNG2-V2-20] (Eterna round: R96, puzzle: Same State NG 2)	21.7	23.4	29.8			
UUAGUCAUGUAAGGAUAUGCAGCCGAAACGGCUGCAGAAGGUACUAUAAUUACAUGAGGAUCACCCAUGUUAUAAAAUAAAUAU [Mat - Same State NG 1 - JL mod - D63] (Eterna round: R96, puzzle: Same State NG 1)	22.9	25.6	48			
CUUUUUCACUAUACAUGAGGAUCACCCAUGUUAUCAUCAUGAGAGGAUAUCGUAAUAGGAUUUUUCGAGAAGGCUCUAAAGUAU [JR_SSNG3_Sub079] (Eterna round: R96, puzzle: Same State NG 3)	26.3	43	45			
GUUACAUGAGGAUCACCCAUGUAUGUGUGGGAGUAAGUGUCUUAGGAUAUCUAUCAUUUAAUGUAAGAGAAGGAAGAUUGUUGU [JMF's solution 97] (Eterna round: R96, puzzle: Same State NG 3)	122	106	118			

Sequence	apparent KD of MS2 coat protein (input ligand: FMN 200 uM) [nM]	apparent KD of MS2 coat protein [1] [nM]	apparent KD of MS2 coat protein (input ligand: none) [nM]	apparent KD of MS2 coat protein [2] [nM]	apparent KD of MS2 coat protein [3] [nM]	apparent KD of MS2 coat protein [4] [nM]
GAGGGCGAAAGCAACAUGAGGAUCACCCAUGUCCUCGGAGGGCAGGAUAUCCGGCGGUAGCCGAAGGAGAAGGGUCGGUAAACC [AK SSNG3-V2-33] (Eterna round: R96, puzzle: Same State NG 3)	258	214	184			
GCUCGACGUUCGGCCUACAUGAGGAUCACCCAUGUGACUGGGCAGGAUAUCUAAAUGCAGAAUGUAGAGAAGGGCCCGUCGAGC [SameState NG3 #51] (Eterna round: R96, puzzle: Same State NG 3)	168	43.4	190			
UGUUGUAUUACAGGAUAUCUAUGAUUUUUGUUUAGAGAAGGGUAUUCACAUGAGGAUCACCCAUGUAUAUACGAGGAAGUUGUG [JMF's solution 66] (Eterna round: R96, puzzle: Same State NG 1)		42.4				
AACAAUCUAUCUGAGGAUAUCAUGAAAAAAACAUGAGGAUCACCCAUGUGCAGGAAAACUGCAUAUGAGAAGGCAGAUAGAUUGA [salish99_SS2_r3_001] (puzzle: Same State 2)				20.6	484	741
UUGAUGUACUGAGGAUAUCGUGUCGUCUGAUUUGACAUGAGGAUCACCCAUGUGGGAAGUGGUAUCGAGAAGGCAGUUUUCUUA [JR_SSNG2_Sub028] (Eterna round: R96, puzzle: Same State NG 2)	151	351	745			
AAUUUUAAACAUGAGGAUCACCCAUGUGUUAUAUAAGCAAAUAAAUAAAUAAAUAAAUAAAUAAAUAAAUAAAUAAA [RNA Sequence] (puzzle: Sensor for hsa-mir-208a version 2)				34.1	40.2	44.5
GCCAUCGCAUGAGGAUAUGGCACCGAAACGGUGCCAGAAGGCAUGUCGAAUGACAUGAGGAUCACCCAUGUAGUAUAGAUGGCA [Mat - Same State NG 1 - JL mod - D92] (Eterna round: R96, puzzle: Same State NG 1)	52.9	571	628			
AUAAGUUUGAUGCUCGUCUCUCCGUACAAACAUGAGGAUCACCCAUGUGGUCGGGAAGUAGCCCGGCCAGUAUGACC [Rigebelain] (puzzle: Sensor for hsa-mir-208a)				32.7	24.4	35.2
UUAGAAUACGCAGGAUAUCGAUGAUUGAUAGUACGAGAAGGGCGAACAUGAGGAUCACCCAUGUAUAUUAAUUUGAGUUUGAAU [JR_SSNG1_Sub076] (Eterna round: R96, puzzle: Same State NG 1)	69.4	120	214			
UCUUGGUUUUUGCUCGUUUUUUGUGUUGAACAUGAGGAUCACCCAUGUAUUGUACAAUCCAAUUUAAUAAUGGUCCG [JMF 48] (puzzle: Sensor for hsa-mir-208a)				74.7	81.7	94
AUUAUUUCAUGAGGAUAUGGCACCUUAUUGGUGCCAGAAGGCAUGUCUAUAAGACAUGAGGAUCACCCAUGUUUAAAUUAUAUA [Eli NG1ss - 90] (Eterna round: R96, puzzle: Same State NG 1)	24.1	164	181			
GUAGCAUACCGAGGAUAUUCAUAACAUGAGGAUCACCCAUGUAUUAGGCCACAUUAGUGGCCUUGGGAGAAGGCGGAAUGCUAC [Xeonanis - 20 Mod45] (Eterna round: R96, puzzle: Same State NG 2)	12.1	11.9	16.9			
UAUUGUUCCUGAGGAUAUCAGUUGUUUGCAUUAUGAGAAGGCAGUACAUGAGGAUCACCCAUGUUGGGAUUUGAUAGAAUGAUA [JR_SSNG1_Sub007] (Eterna round: R96, puzzle: Same State NG 1)		133				
AGUCCAGCCUGAGCUGGACAAAAGCAUGUACAUGAGGAUCACCCAUGUCAUGUGCAAGCUUUUUGCUCGUCUUAAAA [Zipper 46 - 6] (puzzle: Sensor for hsa-mir-208a)				61	11.6	67.9
UUAAUAAAGUAAGGAUAUACAUGAGGAUCUCUCGUAGAAGGUACUAUACAUGAGGAUCACCCAUGUGCCGGUCCGUAGACUGGA [Mat - Same State NG 1 - JL mod - D7] (Eterna round: R96, puzzle: Same State NG 1)		124				
